According to patent publication US20210347832:

How the values were obtained:
[1] = test system: T1, C16-CathB-SIINFEKL
T1 sequence: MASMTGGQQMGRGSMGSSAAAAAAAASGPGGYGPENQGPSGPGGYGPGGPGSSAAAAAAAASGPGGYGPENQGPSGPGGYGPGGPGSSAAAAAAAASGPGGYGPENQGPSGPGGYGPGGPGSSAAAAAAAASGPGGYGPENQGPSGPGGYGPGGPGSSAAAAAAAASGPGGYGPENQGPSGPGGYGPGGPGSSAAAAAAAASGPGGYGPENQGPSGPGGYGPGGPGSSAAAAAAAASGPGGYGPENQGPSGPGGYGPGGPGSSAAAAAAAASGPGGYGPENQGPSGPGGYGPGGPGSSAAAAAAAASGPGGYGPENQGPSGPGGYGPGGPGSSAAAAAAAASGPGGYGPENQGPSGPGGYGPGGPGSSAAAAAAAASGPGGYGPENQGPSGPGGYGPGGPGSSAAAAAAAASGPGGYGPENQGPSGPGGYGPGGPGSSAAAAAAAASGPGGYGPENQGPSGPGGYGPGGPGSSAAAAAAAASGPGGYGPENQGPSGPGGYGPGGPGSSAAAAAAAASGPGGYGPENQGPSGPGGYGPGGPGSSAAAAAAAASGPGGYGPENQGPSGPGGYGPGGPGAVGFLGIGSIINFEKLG

[2] = test system: T2, C16-CathS-SIINFEKL
T2 sequence: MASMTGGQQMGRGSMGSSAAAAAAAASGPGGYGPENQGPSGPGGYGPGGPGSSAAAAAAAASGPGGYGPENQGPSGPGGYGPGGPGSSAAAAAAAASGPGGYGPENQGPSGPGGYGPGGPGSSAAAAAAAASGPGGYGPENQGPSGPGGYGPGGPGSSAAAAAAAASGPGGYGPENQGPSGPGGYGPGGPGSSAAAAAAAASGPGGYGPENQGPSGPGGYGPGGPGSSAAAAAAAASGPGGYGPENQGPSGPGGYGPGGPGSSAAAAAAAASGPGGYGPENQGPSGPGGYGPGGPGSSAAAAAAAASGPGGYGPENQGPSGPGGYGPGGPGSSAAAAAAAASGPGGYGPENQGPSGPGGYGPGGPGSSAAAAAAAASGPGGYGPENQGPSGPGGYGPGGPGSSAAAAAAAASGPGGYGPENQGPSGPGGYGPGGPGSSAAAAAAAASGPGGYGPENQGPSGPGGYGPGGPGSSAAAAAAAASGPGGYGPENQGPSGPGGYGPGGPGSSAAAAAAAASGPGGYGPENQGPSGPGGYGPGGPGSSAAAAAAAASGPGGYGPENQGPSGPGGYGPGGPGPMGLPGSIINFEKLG

| Substance | release of cleaved SIINFEKL peptide from particles (RP-HPLC, 96 h) [1] | release of cleaved SIINFEKL peptide from particles (RP-HPLC, 96 h) [2] | release of cleaved SIINFEKL peptide from particles (RP-HPLC, 1-96 h) [1] | release of cleaved SIINFEKL peptide from particles (RP-HPLC, 1-96 h) [2] |
| --- | --- | --- | --- | --- |
| cathepsin B enzyme | Cathepsin S enzyme shows the better cleavage of SIINFEKL (SEQ ID NO: 11) peptides from both C16 hybrid protein particles than cathepsin B | Cathepsin S enzyme shows the better cleavage of SIINFEKL (SEQ ID NO: 11) peptides from both C16 hybrid protein particles than cathepsin B |  |  |
| cathepsin S enzyme |  |  | Cathepsin S also cleaves SIINFEKL (SEQ ID NO: 11) peptides from particles designed for cathepsin B release, but slower and in a lesser extent | Cathepsin S enzyme shows the better cleavage of SIINFEKL (SEQ ID NO: 11) peptides from both hybrid polypeptide particles |
